Results as given in the supplement of paper PMC10567573.
± gives the standard deviation.

Test: protein stability index of a GFP-peptide fusion (GPS, HEK-293T) (PSI 1-6); higher = more stable
Conditions: c terminus: a fixed tail appended
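Also: 24-mer peptide tiles fused after GFP, lentivirally expressed, FACS-sorted into six equal bins by GFP/DsRed ratio, decoded by Illumina sequencing, PSI is the read-weighted mean bin number.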

Sequence	protein stability index (treatment: DMSO)	protein stability index (treatment: MLN4924 1 uM, 8 h)
QIFFGRRKDMIAEKLAPSEITEEL [ZNF396]	3.85 ± 0.14	3.74 ± 0.13
RQGNPSWKKQQKCDECGKIFSQSS [ZNF396]	3.57 ± 0.33	3.92 ± 0.11
EVLENVFRVNCYPGIDIREDLAQK [HESX1]	2.46 ± 0.31	2.35 ± 0.66
NRGINITIYGKTFRVVDCDQFTQV [EFHC1]	2.24 ± 0.53	2.72 ± 0.51
GCRTTHSNQEVLQSCLLVIFATKP [PYCR3]	2.64 ± 0.68	2.65 ± 0.91
IRARELQNIYKCIMLKNISQDERL [IQUB]	2.25 ± 0.57	2.15 ± 0.54
ESEVYSWGKGARGRLGRRDEDAGL [NEK8]	4.67 ± 0.19	4.66 ± 0.37
TRIMIGLTLVFFVQITGQPNILFY [SLC2A12]	3.16 ± 0.61	3.27 ± 0.35
RFVPSNPIGILTTSYCELLQNKVP [PPTC7]	2.57 ± 0.29	2.51 ± 0.18
FMQTGYNKLCDWWSLGVIMYEMLI [STK38L]	2.77 ± 0.82	2.47 ± 0.64
AFVLSSNSLKHCTELELFKATCRW [KLHL13]	2.38 ± 0.55	2.23 ± 0.52
KLQKEKEELERRFEDEVKRLGWQQ [MTUS2]	4.36 ± 0.35	4.6 ± 0.32
PILKRKLPGSDVSGRLMGSPPVPG [FBXO28]	3.9 ± 0.3	4 ± 0.1
MRQDLEEERVALNTEIEKLGRSIV [PKD2L1]	4.29 ± 0.13	4.38 ± 0.23
TFFEVSPLCNFNIIESFTELARIV [RAB40A]	2.53 ± 0.42	2.43 ± 0.28
TGAHWMRQPVSFHRVKLTNSTLDP [TBX6]	2.96 ± 0.074	3.02 ± 0.16
RVAKKLQSGLVWTNCWLIRELNLP [ALDH8A1]	2.5 ± 0.38	2.37 ± 0.54
EEAQPMAAPEGKRSLANGPNAGEQ [EID1]	5.16 ± 0.34	5.48 ± 0.31
FANEEEAKKFRKAVTDLLGRRQRK [WASL]	3.15 ± 0.24	3.52 ± 0.27
FGFFFGRTPLIKLSPKKTWEGFIG [CDS1]	2.47 ± 0.48	2.18 ± 0.57
CFKSVAKTPYDTSRRQEKSAGDAD [ELOA2]	4.96 ± 0.3	5 ± 0.46
GKGFRHSSSLAQHQRKHAGEKPFE [ZNF8]	4.82 ± 0.21	4.69 ± 0.28
ICQGDGSSCTHVTGNYRKGNAHLG [ADAMTSL2]	3.74 ± 0.33	3.92 ± 0.26

Sequence	protein stability index (treatment: DMSO)	protein stability index (treatment: MLN4924 1 uM, 8 h)
SINVLLMMHGLKPLSLVKRTDLKD [CEP70]	2.6 ± 0.6	2.59 ± 0.78
HFRGVSLNLTRKLAQQLCTALLFL [DYRK1B]	2.04 ± 0.4	2.15 ± 0.23
VSARSREGRGGRPGSTRPHRSACS [HAGHL]	4.64 ± 0.2	4.69 ± 0.44
PKNREYDRFYVINYLVRLSFHNLK [ZNF277]	3.03 ± 1.2	2.29 ± 0.31
LMQVHASRSNNMGIVGGFTQMIRE [SLC25A25]	2.75 ± 0.21	2.94 ± 0.24
YRQPIPVQELVLEDLQDGDVRMGG [NET1]	4.4 ± 0.29	4.56 ± 0.34
QAAKLLGSMEQVSSHFLEQTLDKK [INTS4]	3.78 ± 0.12	3.88 ± 0.36
KDLNENLAATQGLAHMIAECKKLF [DLC1]	2.39 ± 0.45	2.3 ± 0.34
YRFDSSSCSSEDNLSLVCLPRSED [DRICH1]	4.46 ± 0.16	4.51 ± 0.15
LTIEERYLPQCSYFKCVQKDIQPY [CCND2]	2.37 ± 0.31	2.49 ± 0.24
QESYENVDSLESHIPSQEVPGTQV [ZNF263]	5.42 ± 0.22	5.28 ± 0.22
GSPGMIYSTRYGSPKRQLQFYRNL [KCNAB2]	2.44 ± 0.55	3.1 ± 0.38
LVLPLVPELLSTHPFFDTAEPDMD [INTS4]	2.56 ± 0.11	2.76 ± 0.68
LDRERAAANEQLTRAILRERICSE [CHCHD3]	4.14 ± 0.23	4.1 ± 0.42
TGESKEQVANSAFVERVRKRGFEV [HSP90AB1]	4.18 ± 0.15	4.26 ± 0.12
SRSQNTDMVQKSVSKTLPSTWSDP [CLINT1]	3.87 ± 0.28	3.98 ± 0.23
ACDNGLNVRGGKPDDITVLLSIVA [PPTC7]	2.32 ± 0.59	2.16 ± 0.45
GLVTAALHMVIVAAFTWAFTLFFE [KMT2E]	1.96 ± 0.3	1.83 ± 0.29
NIMPYESTRVCLQPIRGVEGSDYI [PTPRD]	2.91 ± 0.084	3.09 ± 0.18
RRYLEKSIKMGKRNGLHLPEQVQN [NLN]	3.2 ± 0.42	3.23 ± 0.23
RLKRTRLGLDDFESLKVIGRGAFG [STK38L]	2.49 ± 0.22	2.7 ± 0.31
LDREIRLQRLSHSGSRVRVGFRLC [SCNN1D]	2.39 ± 0.17	2.48 ± 0.16
WVHKHFTEDIQTRQYRSIEVLIGA [SRPK2]	2.37 ± 0.18	2.27 ± 0.41

Sequence	protein stability index (treatment: DMSO)	protein stability index (treatment: MLN4924 1 uM, 8 h)
IIEVLSNALSKSSAPPITPECRQV [CHGB]	2.29 ± 0.54	2.32 ± 0.22
TEPMAWNETADLGLDIGAQGEPLG [CTNNB1]	5.29 ± 0.23	5.25 ± 0.18
VSIKEAAGSSNLPAPERTMAGLSK [VENTX]	4.28 ± 0.3	4.33 ± 0.19
IDRMFPEMSIHLSRPNGTSAMLLV [MED27]	2.65 ± 0.71	2.75 ± 0.52
MKLSLGGSEMGLSSHLQSSKAGPT [KLHL13]	3.79 ± 0.26	3.57 ± 0.29
GGPQRIPAHRFVLAAGSAVFDAMF [BTBD1]	2.52 ± 0.31	2.2 ± 0.56
LEQPFLSVFKKGRRRVPVRNLGKV [PLEKHN1]	3.19 ± 0.31	3.56 ± 0.58
TTGIVETHFTFKDLHFKMFDVGGQ [GNAI1]	2.08 ± 0.35	2.27 ± 0.14
RSRIEEQSQLICILKRRSDEALER [CCDC89]	3.86 ± 0.12	3.76 ± 0.23
QQVDTNISVILPTVHEVDIFRCFC [DENND6A]	1.98 ± 0.31	2.24 ± 0.47
TQGCHPAWEPRSESQASRKEEGLP [ZNF8]	4.89 ± 0.25	4.96 ± 0.18
VSSSQDGKVIVWDSFTTNKEHAVT [GNB5]	3.51 ± 0.23	3.67 ± 0.38
DDKDALVFVLIDEVESLTAARNAC [TRIP13]	2.21 ± 0.32	2.38 ± 0.34
AMPMQDIKMILKMVQLDSIEDLEV [PRAME]	2.25 ± 0.22	2.25 ± 0.59
LVYVAAFSIGLGPMPWLVLSEIFP [SLC2A12]	3.22 ± 0.44	3.19 ± 0.7
SQVQVSLEDYINDRQYDSRGRFGE [HNF4A]	4.01 ± 0.14	4.18 ± 0.14
QQAMSLAILRVIRLVRVFRIFKLS [KCNA3]	2.69 ± 0.26	2.63 ± 0.44
FGIEIEVTDINDNAPKFQAENLDV [PCDHGA10]	3.5 ± 0.56	3.98 ± 0.38
YKCAECGKSFCHSTHLTVHRRIHT [ZNF8]	3.9 ± 0.18	4.42 ± 0.16
NFQNIPKETELPFPKQILDQNNVI [MIA2]	3.54 ± 0.34	3.45 ± 0.24
PLGTQVAVNAHQWLDNPERWNKVK [SEPHS2]	3.65 ± 0.084	3.61 ± 0.26
PWLCGESFTLADVSLAVTLHRLKF [GDAP1]	2.65 ± 0.43	2.35 ± 0.41
PLPVSADDTPEVLNRALSNLSSRW [CDS2]	3.82 ± 0.17	3.83 ± 0.19

Sequence	protein stability index (treatment: DMSO)	protein stability index (treatment: MLN4924 1 uM, 8 h)
STVGSAISRKLGDMRNSATFKSFE [TPD52L2]	3.28 ± 0.2	3.28 ± 0.31
NKVAGHPLAQNERCLHMFLQDEII [SNX3]	2.64 ± 0.2	2.7 ± 0.46
VGKSLTILGRTFFIYDCDPFTRRY [EFHC1]	2.47 ± 0.54	2.7 ± 0.54
LQHGDQLSICFTCFKAAFLDFKDL [TEX19]	2.89 ± 0.52	2.51 ± 0.36
LEKVECTPSQEHLKHQTVYRLLKC [FEM1A]	2.85 ± 0.26	3.07 ± 0.38
GFAERRIDKFGFIVGSQGAEGALE [TBC1D10A]	3.93 ± 0.46	3.93 ± 0.19
YMAICKPLHELITMNRRVCVLMLL [OR4A15]	2.79 ± 0.49	2.35 ± 0.32
SHSRERPYKCVQPDCGKAFVSRYK [PLAGL1]	3.34 ± 0.23	3.37 ± 0.17
SEDRTVRVWLKRDSGQYWPSVYHA [WDFY2]	2.27 ± 0.12	2.37 ± 0.21
RLPESVERLTGVSISQVNHKPLRT [FLOT1]	4.06 ± 0.13	4.16 ± 0.32
RRGIALIFNHERFFWHLTLPERRG [CASP6]	2.75 ± 1.6	2.04 ± 0.68
AAWLTLWVFGTSFLPFLLCAVLLS [FADS1]	2.97 ± 0.53	3.15 ± 0.69
MIVDVTPYMNPSPFTVSPNTHVSQ [CLCN6]	2.47 ± 0.17	2.8 ± 0.31
QSLLQPKSSSVDSELTSLCQSVLE [SMG5]	3.88 ± 0.26	3.94 ± 0.21
CEQCGKCKCGECTAPRTLPSCLAC [SPRY1]	4.34 ± 0.2	4.56 ± 0.22
TKMWHPNIYENGDVCISILHPPVD [UBE2R2]	2.11 ± 0.34	2.23 ± 0.055
LDSEIKKNSDGMEAAGVQIQMVNE [CD207]	5.41 ± 0.59	5.22 ± 0.35
RFSSGGACGLGGGYGGGFSSSSSF [KRT16]	2.38 ± 0.64	2.1 ± 0.35
GTSALWRHLRSAHRRELESSGAGS [ZBED3]	3.78 ± 0.57	4.1 ± 0.25
RRDGKWQNVHFHRSGSPTVPIKPP [CAMK2D]	3.32 ± 0.27	3.54 ± 0.4
